# Laboratory results taken from patent publication US12258605B2, “Alkane oxidation by modified hydroxylases” (The California Institute of Technology, priority 2005, dated 2025).
# Marks after values point to notes of the source that are not given here.
# B1: 35-E11: P450 BM-3 variant, SEQ ID NO:7: 53-5H substitutions plus E464G and I710T (protein)
# chain: TIKEMPQPKTFGELKNLPLLNTDKPVQALMKIADELGEIFKFEAPGCVTRYLSSQRLIKEACDESRFDKNLSQALKFFRDFSGDGLFTSWTHEINWKKAHNILLPSFSQQAMKGYHAMMVDIAVQLVQKWERLNADEHIEVSEDMTRLTLDTIGLCGFNYRFNSFYRDQPHPFIISMVRALDEVMNKLQRANPDDPAYDENKRQCQEDIKVMNDLVDKIIADRKARGEQSDDLLTQMLNGKDPETGEPLDDGNISYQIITFLIAGHETTSGLLSFALYFLVKNPHVLQKVVEEAARVLVDPVPSYKQVKQLKYVGMVLNEALRLWPTFPAFSLYAKEDTVLGGEYPLEKGDEVMVLIPQLHRDKTIWGDDVEEFRPERFENPSAIPQHAFKPFGNGQRACIGQQFALHEATLVLGMMLKHFDFEDHTNYELDIKETLTLKPEGFVVKAKSKKIPLGGIPSPSTGQSAKKVRKKAENAHNTPLLVLYGSNMGTAEGTARDLADIAMSKGFAPQVATLDSHAGNLPREGAVLIVTASYNGHPPDNAKQFVDWLDQASADEVKGVRYSVFGCGDKNWATTYQKVPAFIDETLAAKGAENIADRGEADASDDFEGTYEEWREHMWSDVAAYFNLDIENSEDNKSTLSLQFVDSAADMPLAKMHGAFSTNVVASKELQQPGSARSTRHLEIELPKEASYQEGDHLGVIPRNYEGTVNRVTARFGLDASQQIRLEAEEEKLAHLPLAKTVSVEELLQYVELQDPVTRTQLRAMAAKTVCPPHKVELEALLEKQAYKEQVLAKRLTMLELLEKYPACEMKFSEFIALLPSIRPRYYSISSSPRVDEKQASITVSVVSGEAWSGYGEYKGIASNYLAELQEGDTITCFISTPQSEFTLPKDPETPLIMVGPGTGVAPFRGFVQARKQLKEQGQSLGEAHLYFGCRSPHEDYLYQEELENAQSEGIITLHTAFSRMPNQPKTYVQHVMEQDGKKLIELLDQGAHFYICGDGSQMAPAVEATLMKSYADVHQVSEADARLWLQQLEEKGRYAKDVWAG
# modifications: mutant P450 35-E11 protein sequence
# B2: 20-D3: P450 BM-3 variant, SEQ ID NO:11; 35-E11 plus H285R (protein)
# chain: TIKEMPQPKTFGELKNLPLLNTDKPVQALMKIADELGEIFKFEAPGCVTRYLSSQRLIKEACDESRFDKNLSQALKFFRDFSGDGLFTSWTHEINWKKAHNILLPSFSQQAMKGYHAMMVDIAVQLVQKWERLNADEHIEVSEDMTRLTLDTIGLCGFNYRFNSFYRDQPHPFIISMVRALDEVMNKLQRANPDDPAYDENKRQCQEDIKVMNDLVDKIIADRKARGEQSDDLLTQMLNGKDPETGEPLDDGNISYQIITFLIAGHETTSGLLSFALYFLVKNPRVLQKVVEEAARVLVDPVPSYKQVKQLKYVGMVLNEALRLWPTFPAFSLYAKEDTVLGGEYPLEKGDEVMVLIPQLHRDKTIWGDDVEEFRPERFENPSAIPQHAFKPFGNGQRACIGQQFALHEATLVLGMMLKHFDFEDHTNYELDIKETLTLKPEGFVVKAKSKKIPLGGIPSPSTGQSAKKVRKKAENAHNTPLLVLYGSNMGTAEGTARDLADIAMSKGFAPQVATLDSHAGNLPREGAVLIVTASYNGHPPDNAKQFVDWLDQASADEVKGVRYSVFGCGDKNWATTYQKVPAFIDETLAAKGAENIADRGEADASDDFEGTYEEWREHMWSDVAAYFNLDIENSEDNKSTLSLQFVDSAADMPLAKMHGAFSTNVVASKELQQPGSARSTRHLEIELPKEASYQEGDHLGVIPRNYEGTVNRVTARFGLDASQQIRLEAEEEKLAHLPLAKTVSVEELLQYVELQDPVTRTQLRAMAAKTVCPPHKVELEALLEKQAYKEQVLAKRLTMLELLEKYPACEMKFSEFIALLPSIRPRYYSISSSPRVDEKQASITVSVVSGEAWSGYGEYKGIASNYLAELQEGDTITCFISTPQSEFTLPKDPETPLIMVGPGTGVAPFRGFVQARKQLKEQGQSLGEAHLYFGCRSPHEDYLYQEELENAQSEGIITLHTAFSRMPNQPKTYVQHVMEQDGKKLIELLDQGAHFYICGDGSQMAPAVEATLMKSYADVHQVSEADARLWLQQLEEKGRYAKDVWAG
# modifications: mutant P450 20-D3 protein sequence
# notes: 35-E11 plus H285R
# What was measured:
# [1] = High-throughput dimethyl ether (DME) screen; assay type: biochemical; details: relative to 35-E11; normalized to P450 concentration
# Method in brief: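 Mutant P450 BM-3 variants expressed in E. coli and screened as cell lysates in KPi buffer (0.1 M, pH 8.0); dimethyl ether hydroxylation detected as formaldehyde with Purpald, absorbance 550 nm read after 1 hour. Activity relative to parent 35-E11 (8 wells each), normalised to P450 content by CO binding.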
# [2] = Methane to methanol conversion (alcohol oxidase/Purpald); assay type: biochemical; details: for Methane TTN: methane to methanol
# Method in brief: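 Purified P450 BM-3 variants (5 μM) in 0.1 M potassium phosphate pH 8.0 under methane were run with an NADPH regeneration system, 20 h at room temperature for total turnover. Methanol was oxidised by alcohol oxidase to formaldehyde, detected with Purpald at 550 nm against a methanol calibration curve.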
Molecule,Relative DME activity in screen [1],methanol production from methane ([2]; assay detects methanol as low as 10 μM),Methane TTN [2]
B1,1,producing methanol from methane,8
B2,1.7*,,10
